{"source": "the supplement of paper PMC10724198", "note": "± gives the standard deviation of the averaged measurements.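 Further: PSI is a weighted mean of sequencing reads over stability bins, variants kept only with over 10 reads, mCherry proximal and sfGFP distal, peptide attached via GGGS linker.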", "data": [{"system": "Saccharomyces cerevisiae", "assay": "protein stability index of tFT-peptide fusion (C-terminal peptide) (PSI (0-1 scale)); higher = more stable (slower turnover)", "details": "genetic background: wild type; temperature: 30 C", "procedure": "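Multiplexed protein stability (MPS) profiling in S. cerevisiae. Random 12-aa peptides (tFT-X12 library) are fused to the C-terminus of a sfGFP-mCherry tandem fluorescent timer, after mCherry and a GGGS linker. Cells are FACS-sorted into 8 mCherry/sfGFP bins and deep-sequenced. The protein stability index (PSI) is the read-weighted bin average, scaled from 0 (unstable) to 1 (stable). Only peptides with >10 reads are reported; cells were grown at 30 °C in SC-His with glucose.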", "values": [{"sequence": "DDSSLLMLNCLE", "protein stability index": "0.71964 ± 0.00048"}, {"sequence": "DEEVGWGRGVGW", "protein stability index": "0.72 ± 0.074"}, {"sequence": "DETCVGSWNSCG", "protein stability index": "0.712 ± 0.044"}, {"sequence": "DFFPVSGLANEH", "protein stability index": "0.636 ± 0.092"}, {"sequence": "DFSPSPWQFTCW", "protein stability index": "0.692 ± 0.071"}, {"sequence": "DFVKVVPNVVDL", "protein stability index": "0.659 ± 0.078"}, {"sequence": "DFVLKQIARINL", "protein stability index": "0.648 ± 0.021"}, {"sequence": "DGALWGTDRGAG", "protein stability index": "0.701 ± 0.064"}, {"sequence": "DGCRLCRRFIFG", "protein stability index": "0.669 ± 0.013"}, {"sequence": "DGFGVARGVSWG", "protein stability index": "0.752 ± 0.035"}, {"sequence": "DGGGGGGGVAGD", "protein stability index": "0.708 ± 0.051"}, {"sequence": "DGGRPFQKLYVA", "protein stability index": "0.663 ± 0.014"}, {"sequence": "DGLWIYNINDGH", "protein stability index": "0.7314 ± 0.0019"}, {"sequence": "DGTICAITYLTS", "protein stability index": "0.6653 ± 0.0017"}, {"sequence": "DGWVAVGRALGG", "protein stability index": "0.704 ± 0.028"}, {"sequence": "DHNTRGYQTKSR", "protein stability index": "0.667 ± 0.031"}, {"sequence": "DIHSSQVPSMFA", "protein stability index": "0.68 ± 0.076"}, {"sequence": "DIHVNLHKSRKM", "protein stability index": "0.626 ± 0.027"}, {"sequence": "DIIGMPLLMKKK", "protein stability index": "0.693 ± 0.03"}, {"sequence": "DIKATRTYNHKV", "protein stability index": "0.68 ± 0.029"}, {"sequence": "DIKKRQNIKDRK", "protein stability index": "0.686 ± 0.051"}, {"sequence": "DKKKNKDQKEKI", "protein stability index": "0.731 ± 0.029"}, {"sequence": "DKKKRRERKDRT", "protein stability index": "0.6746 ± 0.0061"}, {"sequence": "DKLSSRIPCSPS", "protein stability index": "0.679 ± 0.0077"}, {"sequence": "DKTPRSHKKTAE", "protein stability index": "0.738 ± 0.022"}, {"sequence": "DLAPLSFVHLLL", "protein stability index": "0.596 ± 0.037"}, {"sequence": "DLFPTLFFIRSR", "protein stability index": "0.689 ± 0.073"}, {"sequence": "DLGLSYCGYAML", "protein stability index": "0.683 ± 0.064"}, {"sequence": "DLGVCCLLGDFG", "protein stability index": "0.577 ± 0.0072"}, {"sequence": "DLPRCPPSPPPS", "protein stability index": "0.713 ± 0.046"}, {"sequence": "DLPRLLLSPSLP", "protein stability index": "0.67 ± 0.058"}, {"sequence": "DLRPSLPHPTQP", "protein stability index": "0.673 ± 0.037"}, {"sequence": "DLRSSDPVAGSL", "protein stability index": "0.623 ± 0.011"}, {"sequence": "DLTPWLAPFRER", "protein stability index": "0.797 ± 0.097"}, {"sequence": "DLWDDVAYVIVA", "protein stability index": "0.619 ± 0.039"}, {"sequence": "DMYLPSSSHPPP", "protein stability index": "0.712 ± 0.021"}, {"sequence": "DMYSVTRDHVMI", "protein stability index": "0.655 ± 0.04"}, {"sequence": "DNARCKSPRSLN", "protein stability index": "0.621 ± 0.092"}, {"sequence": "DNEMLQICRSRW", "protein stability index": "0.774 ± 0.029"}, {"sequence": "DNGVLVFLPVLD", "protein stability index": "0.6791 ± 0.0066"}, {"sequence": "DNMKLILNGYNL", "protein stability index": "0.658 ± 0.03"}, {"sequence": "DNSIWPSALCAP", "protein stability index": "0.703 ± 0.047"}, {"sequence": "DNWHRSFSTYPV", "protein stability index": "0.647 ± 0.099"}, {"sequence": "DPPFPSGPPLPL", "protein stability index": "0.6742 ± 0.0061"}, {"sequence": "DPPPHPPPASPT", "protein stability index": "0.7 ± 0.1"}, {"sequence": "DPVLPSVRVSLG", "protein stability index": "0.715 ± 0.068"}, {"sequence": "DQDVPLWGLVSM", "protein stability index": "0.682 ± 0.054"}, {"sequence": "DQESTRLRWGTS", "protein stability index": "0.66 ± 0.041"}, {"sequence": "DQNNSQIRHEQP", "protein stability index": "0.575 ± 0.03"}, {"sequence": "DQRCRLQGRYQR", "protein stability index": "0.733 ± 0.12"}, {"sequence": "DQRLKKKTVQMK", "protein stability index": "0.778 ± 0.076"}, {"sequence": "DQVWGGSEDNTV", "protein stability index": "0.76 ± 0.052"}, {"sequence": "DRCLFRFNLWGG", "protein stability index": "0.7203 ± 0.0063"}, {"sequence": "DRFPGLILVSFP", "protein stability index": "0.73 ± 0.05"}, {"sequence": "DRGKGEKGKKAD", "protein stability index": "0.6797 ± 0.0036"}, {"sequence": "DRHVPPASYLAD", "protein stability index": "0.6343 ± 0.0057"}, {"sequence": "DRLGDCRKPRPF", "protein stability index": "0.657 ± 0.099"}, {"sequence": "DRNGKIGTFKKV", "protein stability index": "0.795 ± 0.12"}, {"sequence": "DRNVMNGFTRPG", "protein stability index": "0.659 ± 0.034"}, {"sequence": "DRPPPPPRSSPL", "protein stability index": "0.753 ± 0.046"}, {"sequence": "DRQGMIGLKYVK", "protein stability index": "0.776 ± 0.11"}, {"sequence": "DRRRGVGESSFG", "protein stability index": "0.703 ± 0.025"}, {"sequence": "DRWIGLWGGLWV", "protein stability index": "0.63 ± 0.018"}, {"sequence": "DRYGVYPIYGKF", "protein stability index": "0.6855 ± 0.0054"}, {"sequence": "DSASFAFCCFCD", "protein stability index": "0.639 ± 0.023"}, {"sequence": "DSESSLPSLPHT", "protein stability index": "0.682 ± 0.015"}, {"sequence": "DSGRRVTLLVFV", "protein stability index": "0.594 ± 0.041"}, {"sequence": "DSHRRPGSPPPL", "protein stability index": "0.688 ± 0.11"}, {"sequence": "DSILYKKYKQLG", "protein stability index": "0.559 ± 0.024"}, {"sequence": "DSMLTYIRSTKD", "protein stability index": "0.633 ± 0.007"}, {"sequence": "DSPPMTALITDF", "protein stability index": "0.697 ± 0.019"}, {"sequence": "DSPRTFWGPTQK", "protein stability index": "0.699 ± 0.055"}, {"sequence": "DSQAEPGLSARL", "protein stability index": "0.796 ± 0.059"}, {"sequence": "DSSDIELSTRTL", "protein stability index": "0.651 ± 0.027"}, {"sequence": "DSVQALDGRAGI", "protein stability index": "0.683 ± 0.046"}, {"sequence": "DTDLWFASVFSS", "protein stability index": "0.793 ± 0.022"}, {"sequence": "DTNRALMRKSHS", "protein stability index": "0.673 ± 0.0088"}, {"sequence": "DVDWVLTLGCLG", "protein stability index": "0.647 ± 0.034"}, {"sequence": "DVELTGCCLSRT", "protein stability index": "0.696 ± 0.026"}, {"sequence": "DVGGDGDCVVSS", "protein stability index": "0.661 ± 0.0024"}, {"sequence": "DVGRDVCEFRDR", "protein stability index": "0.677 ± 0.045"}, {"sequence": "DVHPPPPAPPPP", "protein stability index": "0.747 ± 0.12"}, {"sequence": "DVKNMVWKTIEL", "protein stability index": "0.6746 ± 0.0065"}, {"sequence": "DVLSLFCKFFGV", "protein stability index": "0.661 ± 0.075"}, {"sequence": "DVLVHETFLCRL", "protein stability index": "0.774 ± 0.016"}, {"sequence": "DVVPYLGYYFFC", "protein stability index": "0.578 ± 0.01"}, {"sequence": "DVYDLGLPINMS", "protein stability index": "0.698 ± 0.045"}, {"sequence": "DWSHLLTSHAII", "protein stability index": "0.703 ± 0.041"}, {"sequence": "EAGGAQGPTGEL", "protein stability index": "0.634 ± 0.02"}, {"sequence": "EAQGVEMMGWAV", "protein stability index": "0.696 ± 0.025"}, {"sequence": "EARPQAMPGRHP", "protein stability index": "0.689 ± 0.024"}, {"sequence": "ECNESSACRNHY", "protein stability index": "0.65 ± 0.032"}, {"sequence": "EDKETETSVNQK", "protein stability index": "0.6758 ± 0.0059"}, {"sequence": "EDKVHQSSACHQ", "protein stability index": "0.707 ± 0.03"}, {"sequence": "EDNRTSEMFVFY", "protein stability index": "0.753 ± 0.14"}, {"sequence": "EDSRATNERGRT", "protein stability index": "0.704 ± 0.049"}, {"sequence": "EEFTSRAFRISW", "protein stability index": "0.744 ± 0.13"}, {"sequence": "EERAGTRGGRGR", "protein stability index": "0.743 ± 0.13"}]}]}
